Here are results for one molecule from patent publication US20060073508A1 (published 2006).

The target of the experiment is GRK2 (βARK1). Put plainly: cell-based or functional assay.

B1: hemagglutinin epitope-tagged Del301-303 human alpha-2B adrenergic receptor (receptor)
chain: YPYDVPDYAMDHQDPYSVQATAAIAAAITFLILFTIFGNALVILAVLTSRSLRAPQNLFLVSLAAADILVATLIIPFSLANELLGYWYFRRTWCEVYLALDVLFCTSSIVHLCAISLDRYWAVSRALEYNSKRTPRRIKCIILTVWLIAAVISLPPLIYKGDQGPQPRGRPQCKLNQEAWYILASSIGSFFAPCLIMILVYLRIYLIAKRSNRRGPRAKGGPGQGESKQPRPDHGGALASAKLPALASVASAREVNGHSKSTGEKEEGETPEDTGTRALPPSWAALPNSGQGQKEGVCGASPEDEAEEEEEEEEECEPQAVPVSPASACSPPLQQPQGSRVLATLRGQVLLGRGVGAIGGQWWRRRAQLTREKRFTFVLAVVIGVFVLCWFPFFFSYSLGAICPKHCKVPHGLFQFFFWIGYCNSSLNPVIYTIFNQDFRRAFRRILCRPWTQTAW
As to B1, the “agonist-promoted whole cell phosphorylation of the receptor (10 µM norepinephrine)” value worked out at 3.28 fold increase.
